Assay [1] addresses human BLyS (full length, arginine to histidine at position 132) on CHO-K1 cells (human) (UniProt Q9Y275). In words: flow cytometry, CHO-K1 hBLyS cells, antibody 13.3 nM. In general terms: A flow cytometer gives signals particle by particle.
The target in assay [2] is cynomolgus BLyS (full length, arginine to histidine at position 132) on CHO-K1 cells (cynomolgus). Description: flow cytometry, CHO-K1 cynoBLyS cells, antibody 0.534 nM.
The target of assay [3] is T1, biotinylated hBLyS-ECD (human, UniProt Q9Y275 134-285, biotinylated with Biotin-X-X-NHS (molar ratio 7:1); sites not stated).
T1 construct: also called biotinylated immunogen; BLyS protein
Description: competitive ELISA on biotinylated hBLyS-ECD; competitor L1D12. The method, then: The purified human BLyS antibody and hybridoma antibody were subjected to competitive enzyme-linked immunosorbent assay and the epitopes binding by different antibodies were analyzed.
Purified BLyS antibody was first diluted to a final concentration of 1.0 μg/mL with PBS, then aliquoted into a 96-well ELISA plate at 50 μL per well, and the plate was subsequently sealed with plastic film and incubated at 4° C. overnight. On the next day the plate was rinsed four times with the plate washing buffer [PBS buffer containing 0.05% (v/v) Tween20] and mixed with blocking solution [PBS buffer containing 0.05% (v/v) Tween20 and 1% (w/w) BSA], and then blocked at 37° C. for 1 hour. The blocking solution was removed, and the competitive antibody and IgG control were diluted to a final concentration of 40 μg/mL with PBS and then aliquoted into the 96-well ELISA plate at 50 μL per well. The biotinylated hBLyS-ECD was then diluted with PBS to a final concentration of 2 ng/mL and pipetted into the 96-well ELISA plate at 50 μL per well. The final concentration of competitive antibody and hBLyS-ECD was 20 μg/mL and 1 ng/mL, respectively. After incubation at 37° C. for 1 hour, the plate was rinsed four times with the plate washing buffer [PBS buffer containing 0.05% (v/v) Tween20]. 100 μL per well of HRP-labeled (horseradish peroxidase) streptavidin (purchased from Sigma) was added into the plate and the plate was incubated at 37° C. for 1 hour. The plate was then washed four times with the plate washing buffer [PBS buffer containing 0.05% (v/v) Tween20]. 100 μL of TMB substrate was aliquoted into each well and after incubation at room temperature for 5 minutes, 100 μL of stop solution (1.0 N HCl) was aliquoted into each well. A₄₅₀ₙₘ values were read by an ELISA plate reader (SpectraMax M5e, purchased from Molecular Device) and the results were shown in Tables 18A-18B. […] The data shown in the table is the inhibitory rate (%) of the binding level of the original antibody to hBLyS-ECD after addition of the competitive antibody.
A general note: In an ELISA, binding on a coated surface is turned into a signal by an enzyme label.

Assay [4] addresses T2, cynomolgus BLyS (full length, arginine 132 mutated to histidine) on CHO-K1 cells (cynomolgus, UniProt Q9Y275 1-285 (human entry)).
T2 construct: also called cyno BLyS; CHO-K1 cynoBLyS
T2 chain: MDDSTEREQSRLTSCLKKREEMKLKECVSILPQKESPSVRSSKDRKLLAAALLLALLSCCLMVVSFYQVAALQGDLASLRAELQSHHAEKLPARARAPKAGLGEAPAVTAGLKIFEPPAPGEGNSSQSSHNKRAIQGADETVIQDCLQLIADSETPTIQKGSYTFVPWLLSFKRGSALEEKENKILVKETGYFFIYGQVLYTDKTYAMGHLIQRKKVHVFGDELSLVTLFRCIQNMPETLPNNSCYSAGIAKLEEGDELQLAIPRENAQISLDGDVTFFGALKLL
Description: flow cytometry (FACS) on CHO-K1 cynoBLyS cells, Alexa 488 secondary antibody.

The target of assay [5] is T1, biotinylated hBLyS-ECD. In words: blocking ELISA: biotinylated hBLyS-ECD on coated BAFF R, antibody 20 nM. The method, then: BAFF R (purchased from R & D Systems) was aliquoted into 96-well ELISA plate at 50 ng per well, and the plate was sealed with plastic film and incubated overnight at 4° C. On the next day the plate was washed four times with the plate washing buffer [PBS buffer containing 0.05% (v/v) Tween20] and added with blocking solution [PBS buffer containing 0.05% (v/v) Tween20 and 1% (w/w) BSA], then blocked for 1 hour at room temperature. The blocking solution was removed and 50 μL per well of the lead antibodies prepared in Embodiment 1 and 2 were added followed by the addition of 50 μL per well of the biotinylated hBLyS-ECD prepared in Embodiment 2. After incubation for 1 hour at 37° C., the plate was washed four times with the plate washing buffer [PBS buffer containing 0.05% (v/v) Tween20]. 100 μL per well of HRP-labeled (horseradish peroxidase) avidin (purchased from Sigma) was added and incubated at 37° C. for 1 hour. The plate was then washed four times with the plate washing buffer [PBS buffer containing 0.05% (v/v) Tween20]. 100 μL of TMB substrate was aliquoted into each well and after incubation for 5 minutes at room temperature, then 100 μL of stop solution (1.0 N HCl) was aliquoted into each well. A₄₅₀ₙₘ values were read with an ELISA plate reader (SpectraMax 384plus, Molecular Device) and the results were shown in FIGS. 9A-9B and Table 15. It was shown in Table 15 that the binding of BLyS protein to its receptor BAFF R could be blocked by the BLyS antibody.

Assay [6] has as its target T3, biotinylated hBLyS-ECD (human, UniProt Q9Y275 134-285, biotinylated with Biotin-X-X-NHS (molar ratio 7:1); sites not stated).
T3 construct: also called biotinylated immunogen; biotinylated hBLvS-ECD
In words: ELISA on captured biotinylated hBLyS-ECD; antibody 0.534 nM.

Assay [7] has as its target T3, biotinylated hBLyS-ECD. In words: BAFF R-coated ELISA, biotinylated hBLyS-ECD bound in presence of antibody 20 nM.

Substitutions are numbered along the chain they refer to.

As usually defined, the EC50 (read off the curve) is the concentration needed to bring the measured effect to its halfway point. Read a high EC50 (read off the curve) as a need for much substance.

Chain of human BLyS (full length, arginine to histidine at position 132) on CHO-K1 cells (human) (Q9Y275 whole entry R130H): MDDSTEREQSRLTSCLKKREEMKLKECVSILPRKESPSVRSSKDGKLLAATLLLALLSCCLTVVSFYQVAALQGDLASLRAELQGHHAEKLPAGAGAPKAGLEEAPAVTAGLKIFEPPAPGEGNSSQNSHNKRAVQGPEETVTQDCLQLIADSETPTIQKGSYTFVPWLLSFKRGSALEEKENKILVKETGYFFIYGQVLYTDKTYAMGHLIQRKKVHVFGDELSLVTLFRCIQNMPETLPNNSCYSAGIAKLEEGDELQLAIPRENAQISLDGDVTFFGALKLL

Consider mIgG Control (antibody), for which the MFI in assay [1] came out at 31.7 MFI; in assay [2], 20 MFI.

In the case of hIgG Control (antibody), the MFI stood at 35.1 MFI in assay [1] and 22.6 MFI in assay [2].

B1: 2-1G11 (antibody, V domains shown)
VH: EVQLVESRGGVVQPGRSLRLSCAASGFTFSSYGMHWVRQAPGKGLEWVAVISYDGSNKYYADSVKGRFTISRDNSKNTLYLQMNSLRAEDAAVYYCARDRVDILTGYSIYGMDVWGQGTTVTVSS
VL: EIVMTQSPATLSLSPGERATLSCRASQSVSSYLAWYQQKPGQAPRLLIYDASKRATGIPARFSGSGSGTDFTLTISSLEPEDFAVYYCQQRSNWPLTFGGGTKVEIK
notes: From a human naive scFv phage library; also called human BLyS antibody 2-1G11
As to B1, the “inhibitory rate (%)” value with biotinylated hBLyS-ECD [3] is 91%.

B2: L9G7 (antibody, human IgG1, V domains shown)
VH: QIQLVQSGAEVKKPGASVKVSCKASGYTFTSYGISWVRQAPGQGLEWMGWISAYNGNTNYAQKLQGRVTMTTDTSTSTAYMELRSLRSDDTAVYYCARTYYDILTGYYYYGMDVWGQGTTVTVSS
VL: B1 VL with M4L, A9G, A25T, S30D, S31T, K53N
As to B2, the “EC50 (read off the curve)” value in assay [4] was ~0.2 nM.

B3: L9G7 (antibody, V domains shown)
VH: B2 VH
VL: B1 VL with M4L, A9G, A25T, S30D, S31T, K53N
notes: From a human naive scFv phage library; also called human BLyS antibody L9G7
B3: the “inhibitory rate (%)” value with biotinylated hBLyS-ECD [3] stood at 97%.

B4: 8E7D9C7F5 (antibody, V domains shown)
VH: QVQLQQSGVELARPGASVKLSCKASGYTFTSYGISWVKQRTGQALEWIGEIYPRSGNTYYNEKFKGKATLTADKSSSTAYMELRSLTSEDSAVYFCARSGPITTLVATDYGMDYWGQGTSVTVSS
VL: DIVLTQSPASLAVSLGQRATISCRASKSVSTSSYSYMHWYQQKPGQPPKLLIKFASNLESGVPARFSGSGSGTDFTLNIHPVEEEDAATYYCQHSREFPYTFGGGTKLEIK
notes: Mouse hybridoma monoclonal antibody purified on Protein G
Consider B4, for which, in the assay with biotinylated hBLyS-ECD [5], the OD450 nm turned out to be 0.133 OD450 nm.

B5: c8E7D9C7F5 (antibody, V domains shown)
VH: B4 VH
VL: B4 VL
notes: also called chimeric antibody c8E7D9C7F5
Turning to B5, the figures for the OD450 nm in the assay with biotinylated hBLyS-ECD [6] and in the assay with biotinylated hBLyS-ECD [7] were 3.07 OD450 nm and 0.66 OD450 nm, respectively.

B6: 97A3C2H4 (antibody, V domains shown)
VH: EVKLVESGGGLVQPGGSLKLSCAASGFTFSTYTMSWVRQTPEKRLEWVAYISYGGGSTSYPDTVKGRFTISRDNAKNTLYLQMSSLKSEDTAIYYCTRHVTVVENSMDYWGQGTSVTVSS
VL: DILLTQSPDILSVSPGERVSFSCRASQSIGTSIHWYQQRTNGSPRLLIKYVSESFSGTPSRFSGSGSGTAFTLTINSVESEDIADYYCQQTHSWPWTFGGGTKLEIK
notes: as for B4
B6: the OD450 nm with biotinylated hBLyS-ECD [5] is 0.125 OD450 nm.

B7: 97A3C2H4 (antibody, V domains shown)
VH: B6 VH
VL: B6 VL
notes: Mouse hybridoma antibody purified on Protein G
As for B7, the “EC50 (read off the curve)” value in assay [4] is ~0.3 nM.

B8: c97A3C2H4 (antibody, V domains shown)
VH: B6 VH
VL: B6 VL
notes: also called chimeric antibody c97A3C2H4
Turning to B8, the OD450 nm with biotinylated hBLyS-ECD [6] stood at 3.26 OD450 nm; with biotinylated hBLyS-ECD [7], 0.717 OD450 nm.

B9: 111D10D6G3 (antibody, V domains shown)
VH: QVQLQQPGAELVKPGASVKMSCKASGYTFTRHWITWVKQRPGQGLEWIGDIFPGSGSINYNEKFKSEATLTVEKSSSTAYMQLSSLTSEDSAVYYCARGDVDVWGTGTTVTVSS
VL: DIQMTQSPSSLSASLGERVSLTCRASQEIRGYLSWLQQKPNGTIKRLIYAASTLDSGVPKRFSATRSGSDFSLTISSLESEDFADYYCLQYASYPFTFGSGTKLEIK
notes: as for B4
Turning to B9, in the assay with biotinylated hBLyS-ECD [5], the OD450 nm stood at 0.616 OD450 nm.

B10: 111D10D6G3 (antibody, V domains shown)
VH: B9 VH
VL: B9 VL
notes: as for B7
Regarding B10, the “EC50 (read off the curve)” value in assay [4] was ~0.1 nM.

B11: L1D12 (antibody, V domains shown)
VH: QVQLVQSGGGLVQPGGSLRLSCAASGFTVSSNYMSWVRQAPGKGLEWVSVIYSGGSTYYADSVKGRFTISRDNSKNTLYLQMNSLRAEDTAVYYCARGFHDILTGYGMDVWGQGTTVTVSS
VL: SSELTQDPAVSVALGQTVRITCQGDSLRNYYAGWYQQKPGQAPVLVIYGKNNRPSGIPDRFSGSSSGNTASLTITGTQAEDEADYYCSSRDNSGTHLVEFGGGTKLTVL
notes: From a human naive scFv phage library; also called human BLyS antibody L1D12; LID12
As to B11, the “inhibitory rate (%)” value in the assay with biotinylated hBLyS-ECD [3] worked out at 94%.

B12: L1D12 (antibody, human IgG1, V domains shown)
VH: B11 VH
VL: B11 VL
notes: also called LID12
B12: the “EC50 (read off the curve)” value in assay [4] is ~0.2 nM.
